{"source": "patent US20160209425A1", "about": "“USE OF DECTIN-1 ACTIVATORS FOR TREATMENT OF LIVER DISORDERS” (NEW YORK UNIVERSITY, priority 2015, published 2016)", "key": {"HSC": {"tested_on": "HSC", "assay": "LPS-stimulated hepatic stellate cells in vitro", "assay_type": "cell-based, mouse", "details": "LPS-stimulated Dectin-1−/− HSC, 24 h; FIG. 14D", "description": "Murine hepatic NPC were collected as previously (Connolly et al., 2009, The Journal of clinical investigation 119, 3213-3225). Briefly, the portal vein was cannulated and infused with 1% Collagenase IV (Sigma). The liver was then removed, minced, and filtered to obtain single cell suspensions. Hepatocytes were excluded with serial low speed (400 RPM) centrifugation followed by high speed (2000 RPM) centrifugation to isolate the NPC, which were then further enriched over a 40% Optiprep (Sigma) gradient. […] In vitro proliferation was measured using the XTT cell proliferation kit (Roche). PKC activity was measured using a PKC Kinase Activity Assay Kit (Abcam). […]\nFor Western blotting, total protein was isolated from 75 mg liver tissue by homogenization in RIPA buffer with Complete Protease Inhibitor cocktail (Roche). […] The presence of the co-immunoprecipitated proteins were determined by western blotting."}, "LPS-induced endotoxemia": {"tested_on": "LPS-induced endotoxemia", "assay": "LPS-induced endotoxemia / sepsis in mice", "assay_type": "in vivo, mouse", "details": "WT mice co-administered LPS and M-CSF; FIGS. 7G, 7H", "description": "C57BL/6 and CD45.1 mice were purchased from Jackson and bred in house. Dectin-1^−/− mice were a gift from Gordon Brown (University of Aberdeen). Mincle^−/− mice were obtained from the MMRRC. Age-matched 6-8 week old mice were used in all experiments. To induce hepatic fibrosis, female mice were treated with thrice weekly injections of TAA (250 mg/kg; Sigma) for 12 weeks as described (Connolly et al., 2009, The Journal of clinical investigation 119, 3213-3225). Alternatively, mice received bi-weekly injections of CCl4 (0.5 ml/kg; Sigma) for the same duration. To induce HCC, male mice were injected i.p. at 2 weeks of age with a single dose of DEN (15 mg/kg, Sigma) followed by bi-weekly injections of CCl4 (0.2 ml/kg) starting at 8 weeks of age ((Dapito et al., 2012, Cancer cell 21, 504-516). Mice were sacrificed 24 weeks later. To induce sepsis, male mice were injected i.p. with a single dose of LPS (15 mg/kg; Sigma). Rectal core body temperature was determined using a MicroTherma 2 temperature probe (Thermoworks). In selected experiments, MyD88 inhibitory peptide (1 mg/kg; Novus), an α-M-CSF neutralizing antibody (2 mg/kg; Clone 5A1, BioXCell), or an α-CD14 neutralizing antibody (4 mg/kg; Clone 4C1, BD Bioscience) was administered immediately preceding each TAA or LPS administration. At the time of sacrifice, blood and liver samples were harvested for analysis. […]"}, "macrophages": {"tested_on": "macrophages", "assay": "Macrophages treated in vitro (M-CSF, M-CSF blockade, TNF-a blockade), CD14 and cytokine expression", "assay_type": "cell-based, mouse", "description": "Murine hepatic NPC were collected as previously (Connolly et al., 2009, The Journal of clinical investigation 119, 3213-3225). Briefly, the portal vein was cannulated and infused with 1% Collagenase IV (Sigma). The liver was then removed, minced, and filtered to obtain single cell suspensions. Hepatocytes were excluded with serial low speed (400 RPM) centrifugation followed by high speed (2000 RPM) centrifugation to isolate the NPC, which were then further enriched over a 40% Optiprep (Sigma) gradient. Human liver NPCs were isolated using a similar protocol as we have described ((Ibrahim et al., 2012, Gastroenterology 143, 1061-1072). Human PBMC were isolated by overlaying whole blood diluted 1:1 in PBS over an equal amount of Ficoll. The cells were then spun at 2100 RPM for 21 min at 20° C. and buffy coat harvested to obtain the PBMC as described ((Rehman et al., 2013, Journal of immunology 190, 4640-4649). Single-cell suspensions of murine splenocytes were isolated by manual disruption of whole spleen and RBC lysis. For HSC isolation, the liver was perfused with 1% Collagenase IV and HSCs were enriched over a 2-layer Nicodenz (Sigma) gradient. HSC were used for experiments on day 14 of culture. […] In vitro proliferation was measured using the XTT cell proliferation kit (Roche). PKC activity was measured using a PKC Kinase Activity Assay Kit (Abcam). […]"}, "liver regeneration": {"tested_on": "liver regeneration", "assay": "70% partial hepatectomy, liver regeneration", "assay_type": "in vivo, mouse", "details": "TCRδ−/− mice, 36 h, FIG. 29C", "source_text": "C57BL/6, TCRδ^−/−, and C57BL/6-Trdc^tm1Mal mice were purchased from Jackson (Bar Harbor, Me.). For selected experiments, CD45.1 mice and C57BL/6 controls were purchased from Taconic (Germantown, N.Y.). Dectin-1^−/− mice were a gift from Gordon Brown (University of Aberdeen). Bone marrow chimeric animals were created by irradiating mice (9 Gy) followed by i.v. bone marrow transfer (10^7 cells) as described by us (Ochi et al., The Journal of clinical investigation 2012; 122:4118-29). The 70% partial hepatectomy procedure entailed ligation and removal of the left and median lobes of the liver in 8-12 week-old mice (Mitchell et al., Nat Protoc 2008; 3:1167-70). The sham operation consisted of a midline laparotomy alone. All animal procedures were approved by NYU School of Medicine IACUC.\nIn selected experiments, NK1.1^+ cells were depleted using an mAb (PK136, 150 μg, eBiosciences, San Diego, Calif.). […]\nLiver tissues were fixed in formaldehyde, embedded in paraffin, and stained for B220 (RA3-6B2; BD), BrdU (Bu20a; Sigma), CCL20 (polyclonal, Abcam), CD45 (30-F11; BD), CD68 (KP1; Abcam), Ki67 (16A8; Biolegend), MPO (Rabbit polyclonal; LS Biosciences, Seattle, Wash.), PCNA (PC10; Biolegend). […] Data was quantified by examining 10 high-power fields (HPFs) per slide. […]"}}, "note": "“Also recorded” adds a separate entry of the source.", "data": [{"molecule": "CN(C)CCCn1cc(C2=C(c3c[nH]c4ccccc34)C(=O)NC2=O)c2ccccc21", "note": "[PKC inhibition, GF109203X]", "values": [{"measurement": "M-CSF expression in cell culture supernatant", "setting": "HSC", "result": "abrogated the higher M-CSF expression"}]}, {"molecule": "recombinant M-CSF: recombinant murine M-CSF (R&D) (protein, UniProt P07141 33-552, looked up) Macrophage colony-stimulating …: KEVSEHCSHMIGNGHLKVLQQLIDSQMETSCQIAFEFVDQEQLDDPVCYLKKAFFLVQDIIDETMRFKDNTPNANATERLQELSNNLNSCFTKDYEEQNKACVRTFHETPLQLLEKIKNFFNETKNLLEKDWNIFTKNCNNSFAKCSSRDVVTKPDCNCLYPKATPSSDPASASPHQPPAPSMAPLAGLAWDDSQRTEGSSLLPSELPLRIEDPGSAKQRPPRSTCQTLESTEQPNHGDRLTEDSQPHPSAGGPVPGVEDILESSLGTNWVLEEASGEASEGFLTQEAKFSPSTPVGGSIQAETDRPRALSASPFPKSTEDQKPVDITDRPLTEVNPMRPIGQTQNNTPEKTDGTSTLREDHQEPGSPHIATPNPQRVSNSATPVAQLLLPKSHSWGIVLPLGELEGKRSTRDRRSPAELEGGSASEGAARPVARFNSIPLTDTGHVEQHEGSSDPQIPESVFHLLVPGIILVLLTVGGLLFYKWKWRSHRDPQTLDSSVGRPEDSSLTQDEDRQVELPV", "values": [{"measurement": "LPS-mediated sepsis (serum IL-6, core body temperature)", "setting": "LPS-induced endotoxemia", "result": "exacerbated"}, {"measurement": "MCP-1 and TNF-a expression", "setting": "macrophages; macrophages in vitro, cell-culture supernatant, FIG. 7F", "result": "upregulated"}, {"measurement": "CD14 expression", "setting": "macrophages; macrophages treated with recombinant M-CSF, FIG. 7E", "result": "increased"}]}, {"molecule": "recombinant mIL-22: recombinant IL-22 (R&D) (protein, UniProt Q9JJY9 34-179, looked up) Interleukin-22: LPVNTRCKLEVSNFQQPYIVNRTFMLAKEASLADNNTDVRLIGEKLFRGVSAKDQCYLMKQVLNFTLEDVLLPQSDRFQPYMQEVVPFLTKLSNQLSSCHISGDDQNIQKNVRRLKETVKKLGESGEIKAIGELDLLFMSLRNACV", "values": [{"measurement": "rate of hepatic regeneration (BrdU incorporation)", "setting": "liver regeneration", "result": "rescued"}, {"measurement": "rate of hepatic regeneration (BrdU incorporation)", "setting": "liver regeneration; listed as recombinant IL-22", "result": "impressively restored; also recorded: rescues"}]}]}
